± gives the uncertainty stated by the source.
Test: amyloid nucleation score (Sup35N fusion, yeast selection) (log enrichment); library NNK1; higher = more nucleation; inactive = no reads after selection
Method in brief: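 Sup35N was fused to peptides of 20 random codons and expressed in psi-negative yeast, which were induced with 100 μM copper sulfate for 24 hours and then grown on medium lacking adenine and uracil for 7 days at 30°C. Plasmid inserts from input and output were sequenced on Illumina. The nucleation score is the DiMSum log enrichment of output over input reads, centred on the mode score of non-aggregating sequences. Sequences with under 100 input reads were left out, and random libraries had three technical output replicates.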

Q: With LGMGLTKLLSNYMSGIIVPL as the substance, how does the amyloid nucleation score read?
A: The amyloid nucleation score was -0.047 ± 1.7.

Q: Which amyloid nucleation score does the source give for LGNIKFITYVERCTQEVVSY here?
A: The amyloid nucleation score was -1.49 ± 1.8.

Q: With LGQGRLYILYFMSMYLDMMG as the substance, how does the amyloid nucleation score read?
A: Its amyloid nucleation score is 0.748 ± 0.47.

Q: Which amyloid nucleation score does the source give for LGRHLMILTYQYEEDFPKYR here?
A: The amyloid nucleation score was 0.938 ± 0.16.

Q: For LGTIVVSSVGKLGIIMTRAE, which amyloid nucleation score is on record?
A: The amyloid nucleation score was 1.3 ± 0.15.

Q: With LGWIDSYTYHWDTIHRKQFR as the substance, how does the amyloid nucleation score read?
A: The amyloid nucleation score was 0.878 ± 0.33.

Q: Which amyloid nucleation score does the source give for LGWVYLHMWLGTIYYLFFVI here?
A: Its amyloid nucleation score is -1.14 ± 1.

Q: For LGYEGWYTRVIYGKVALWME, which amyloid nucleation score is on record?
A: The amyloid nucleation score was -0.215 ± 0.59.

Q: For LGYRPWFWTTAFSSLADLAR, which amyloid nucleation score is on record?
A: The amyloid nucleation score was -0.907 ± 1.3.

Q: For LGYVIYFVFWRRHSFSYSAC, which amyloid nucleation score is on record?
A: The amyloid nucleation score was -0.407 ± 0.31.

Q: Which amyloid nucleation score does the source give for LGYVYSKSTSSTQSLFICSG here?
A: Its amyloid nucleation score is -0.287 ± 0.26.

Q: Which amyloid nucleation score does the source give for LHERRYSLLSLESLIHNKSC here?
A: Its amyloid nucleation score is -0.752 ± 0.61.

Q: With LHLYIMS as the substance, how does the amyloid nucleation score read?
A: The amyloid nucleation score was “inactive”.

Q: Which amyloid nucleation score does the source give for LHQVMAWCMGEKWAETRSPW here?
A: The amyloid nucleation score was -0.703 ± 2.1.

Q: For LHRRSDNGESFWTEGSITFV, which amyloid nucleation score is on record?
A: Its amyloid nucleation score is -0.086 ± 0.25.

Q: With LHTCHSLLPLIEYDFISYGV as the substance, how does the amyloid nucleation score read?
A: The amyloid nucleation score was -0.208 ± 0.7.

Q: Which amyloid nucleation score does the source give for LHWFQLMANFI here?
A: Its amyloid nucleation score is -0.069 ± 0.28.

Q: Which amyloid nucleation score does the source give for LIEGRGIRGLVCCFSISFA here?
A: The amyloid nucleation score was 8.375 ± 0.048.

Q: For LIFVNVSGL, which amyloid nucleation score is on record?
A: The amyloid nucleation score was 6.406 ± 0.054.

Q: Which amyloid nucleation score does the source give for LIHVCQYCVRPVNGGSVNLR here?
A: Its amyloid nucleation score is 0.264 ± 0.44.

Q: For LIHVRCSLVQCANSELQGAG, which amyloid nucleation score is on record?
A: The amyloid nucleation score was 2.65 ± 0.28.

Q: With LIIVEIMLDDVSVVSFRVIH as the substance, how does the amyloid nucleation score read?
A: The amyloid nucleation score was 0.195 ± 0.6.

Q: For LIMVFVDSLRNRLELCFFQC, which amyloid nucleation score is on record?
A: The amyloid nucleation score was “inactive”.

Q: With LINSFLVLWKPFIFAEGRTR as the substance, how does the amyloid nucleation score read?
A: The amyloid nucleation score was 7.903 ± 0.066.

Q: For LIQIDLF, which amyloid nucleation score is on record?
A: Its amyloid nucleation score is -0.264 ± 0.56.

Q: Which amyloid nucleation score does the source give for LIRNINHWASYRFFCNCSSW here?
A: The amyloid nucleation score was 6.443 ± 0.06.

Q: With LIRREHSRL as the substance, how does the amyloid nucleation score read?
A: The amyloid nucleation score was “inactive”.

Q: Which amyloid nucleation score does the source give for LIVIPKGG here?
A: The amyloid nucleation score was 1.58 ± 0.51.

Q: For LIVNLDMTSVLHVSGELR, which amyloid nucleation score is on record?
A: Its amyloid nucleation score is 5.22 ± 0.078.

Q: For LIVRNRHCLGAPFENFFSAR, which amyloid nucleation score is on record?
A: The amyloid nucleation score was 0.671 ± 0.37.

Q: With LIYESNREHYYMRSRSAVTR as the substance, how does the amyloid nucleation score read?
A: The amyloid nucleation score was -0.825 ± 0.99.

Q: Which amyloid nucleation score does the source give for LIYYNLIGHRVSWGEVGYFV here?
A: The amyloid nucleation score was 0.014 ± 0.35.

Q: Which amyloid nucleation score does the source give for LKFKARLRRTLPVQQNRAIG here?
A: Its amyloid nucleation score is “inactive”.

Q: With LKGKTLVMSFFRSAKITVAH as the substance, how does the amyloid nucleation score read?
A: The amyloid nucleation score was “inactive”.

Q: Which amyloid nucleation score does the source give for LKGVIYAVANWGWIISGHEV here?
A: The amyloid nucleation score was 0.837 ± 0.23.

Q: For LKISWR, which amyloid nucleation score is on record?
A: Its amyloid nucleation score is 0.724 ± 0.36.

Q: Which amyloid nucleation score does the source give for LKLCKVRMQTLLNDVGTSCP here?
A: Its amyloid nucleation score is 0.025 ± 0.4.

Q: For LKLYLYTLECTFDELDYGD, which amyloid nucleation score is on record?
A: The amyloid nucleation score was 0.161 ± 0.41.

Q: With LKQSYKKPY as the substance, how does the amyloid nucleation score read?
A: The amyloid nucleation score was “inactive”.

Q: With LKTYFGVVSRTLGLCLREEI as the substance, how does the amyloid nucleation score read?
A: The amyloid nucleation score was 0.489 ± 0.43.

Q: With LKYLR as the substance, how does the amyloid nucleation score read?
A: The amyloid nucleation score was 1.14 ± 0.15.

Q: For LLASAIHLNRTADAMKEYYP, which amyloid nucleation score is on record?
A: Its amyloid nucleation score is -0.036 ± 0.39.

Q: With LLDGYSLDNIGLEVGNASSN as the substance, how does the amyloid nucleation score read?
A: The amyloid nucleation score was 0.53 ± 0.41.

Q: With LLFKNRISPITTI as the substance, how does the amyloid nucleation score read?
A: The amyloid nucleation score was 0.174 ± 0.47.

Q: Which amyloid nucleation score does the source give for LLFLSMMVSASCC here?
A: The amyloid nucleation score was 1.09 ± 0.39.

Q: For LLFYLRSLKMYVLYSGHTMS, which amyloid nucleation score is on record?
A: Its amyloid nucleation score is 1.25 ± 0.45.

Q: For LLFYYLHIFMFSDDRVM, which amyloid nucleation score is on record?
A: The amyloid nucleation score was 0.582 ± 0.56.

Q: For LLGRYNLLYIGMFRATRGGC, which amyloid nucleation score is on record?
A: The amyloid nucleation score was -0.094 ± 1.5.

Q: For LLIEWRLDSGWCTTGSENRD, which amyloid nucleation score is on record?
A: Its amyloid nucleation score is -0.347 ± 0.4.

Q: Which amyloid nucleation score does the source give for LLIGYWLNLECLRYEMCHVL here?
A: Its amyloid nucleation score is -0.396 ± 0.66.

Q: Which amyloid nucleation score does the source give for LLLGDC here?
A: Its amyloid nucleation score is -1.43 ± 2.4.

Q: For LLLGW, which amyloid nucleation score is on record?
A: Its amyloid nucleation score is -0.102 ± 0.32.

Q: Which amyloid nucleation score does the source give for LLLIFNEELW here?
A: Its amyloid nucleation score is -0.28 ± 0.43.

Q: For LLNAFWSFAY, which amyloid nucleation score is on record?
A: Its amyloid nucleation score is 1.6 ± 0.32.

Q: Which amyloid nucleation score does the source give for LLNFCIWAKCWYRLVCNC here?
A: The amyloid nucleation score was 0.209 ± 0.93.

Q: With LLPRGESHVKLKDRGSRMPW as the substance, how does the amyloid nucleation score read?
A: Its amyloid nucleation score is 0.921 ± 0.5.

Q: Which amyloid nucleation score does the source give for LLRGSCFMCSLLDYALVKEG here?
A: The amyloid nucleation score was 3.84 ± 0.1.

Q: For LLRLFALLTLNNLV, which amyloid nucleation score is on record?
A: The amyloid nucleation score was -0.296 ± 0.31.

Q: For LLRLVSFCCFSNRN, which amyloid nucleation score is on record?
A: The amyloid nucleation score was 6.05 ± 0.053.

Q: Which amyloid nucleation score does the source give for LLRYITARETSLTQSQP here?
A: The amyloid nucleation score was 0.298 ± 0.53.

Q: Which amyloid nucleation score does the source give for LLSFGTFTGPKRVYLSLSMV here?
A: Its amyloid nucleation score is 0.059 ± 0.86.

Q: Which amyloid nucleation score does the source give for LLVGMPPNIDM here?
A: The amyloid nucleation score was -0.078 ± 0.41.

Q: With LLVSLSNCFLIWSSAGSMGG as the substance, how does the amyloid nucleation score read?
A: The amyloid nucleation score was 1.81 ± 0.23.

Q: For LLVWNVNGSAMSCNDRCLQS, which amyloid nucleation score is on record?
A: The amyloid nucleation score was 7.141 ± 0.049.

Q: For LLYRMKVFADVGGDVLKSEG, which amyloid nucleation score is on record?
A: Its amyloid nucleation score is “inactive”.

Q: With LLYVLSTLIMYTSTMYIYQV as the substance, how does the amyloid nucleation score read?
A: The amyloid nucleation score was 0.662 ± 0.51.

Q: With LLYVRVHCLTAGFADSEASI as the substance, how does the amyloid nucleation score read?
A: The amyloid nucleation score was -0.168 ± 0.4.

Q: For LMAHSGSAP, which amyloid nucleation score is on record?
A: The amyloid nucleation score was 3.3 ± 0.19.

Q: For LMAPLCICKNFRPELWFNRI, which amyloid nucleation score is on record?
A: The amyloid nucleation score was -0.115 ± 0.58.

Q: With LMCWFAGEDPVFVYTVFIVT as the substance, how does the amyloid nucleation score read?
A: The amyloid nucleation score was -1.49 ± 1.4.

Q: For LMGGNDNWGTTNPEDGILIW, which amyloid nucleation score is on record?
A: The amyloid nucleation score was -0.347 ± 0.41.

Q: For LMLISHEDFLLVFAWFN, which amyloid nucleation score is on record?
A: The amyloid nucleation score was -0.062 ± 0.54.

Q: With LMLVRLVCLHLDDETHIRQR as the substance, how does the amyloid nucleation score read?
A: Its amyloid nucleation score is “inactive”.

Q: Which amyloid nucleation score does the source give for LMMQRERPFRLYL here?
A: Its amyloid nucleation score is -1.34 ± 1.6.

Q: With LMNFSNWDELR as the substance, how does the amyloid nucleation score read?
A: The amyloid nucleation score was -1.26 ± 2.4.

Q: For LMSLIMI, which amyloid nucleation score is on record?
A: Its amyloid nucleation score is 0.032 ± 0.44.

Q: For LMTLDYSTYQHRRATDVWDG, which amyloid nucleation score is on record?
A: The amyloid nucleation score was -0.65 ± 1.3.

Q: Which amyloid nucleation score does the source give for LMTNKKNVMMRRIHTGVASN here?
A: The amyloid nucleation score was 0.368 ± 0.97.

Q: With LMWGIAYCYSVDLC as the substance, how does the amyloid nucleation score read?
A: Its amyloid nucleation score is 5.386 ± 0.051.

Q: For LMYQSFRLTGSYVVIFLYES, which amyloid nucleation score is on record?
A: The amyloid nucleation score was -0.543 ± 1.1.

Q: For LMYSNRYF, which amyloid nucleation score is on record?
A: Its amyloid nucleation score is 4.1 ± 0.079.

Q: For LMYSVS, which amyloid nucleation score is on record?
A: Its amyloid nucleation score is 0.434 ± 0.38.

Q: With LNAESLMSRFVCGMFVVTKG as the substance, how does the amyloid nucleation score read?
A: Its amyloid nucleation score is 0.112 ± 1.2.

Q: For LNCCRMGGVLS, which amyloid nucleation score is on record?
A: The amyloid nucleation score was 0.11 ± 0.42.

Q: Which amyloid nucleation score does the source give for LNCGHYQIASGF here?
A: Its amyloid nucleation score is 0.393 ± 0.72.

— the supplement of paper PMC12042874
